Tested on: MS2 coat protein
Experiment: apparent KD of MS2 coat protein; designed switch direction (-1 OFF switch, 1 ON switch): 1; higher = weaker reporter binding
In short: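 Designed RNA switches sharing common flanks were transcribed on Illumina chips by stalled E. coli RNA polymerase. They were titrated with SNAP-549-labelled MS2 coat protein, from 0.7 or 1.5 nM doubling to 3 µM, in Tris-HCl pH 7.5 buffer with KCl, MgCl2, BSA, DTT, tRNA and Tween-20. Titrations ran without input, with 200 uM small-molecule ligand, or with an oligonucleotide input. The apparent KD of each design is the median over its clusters, after curve-fitting of normalised cluster fluorescence.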

[1] = input ligand: microRNA oligo, concentration not stated
[2] = Eterna round: R95, input ligand: microRNA oligo, concentration not stated
[3] = Eterna round: R95, input ligand: FMN 200 uM
[4] = Eterna round: R95, input ligand: none

| Sequence | apparent KD of MS2 coat protein (input ligand: FMN 200 uM) [µM] | apparent KD of MS2 coat protein [1] [µM] | apparent KD of MS2 coat protein (input ligand: none) [µM] | apparent KD of MS2 coat protein [2] [µM] | apparent KD of MS2 coat protein [3] [µM] | apparent KD of MS2 coat protein [4] [µM] |
| --- | --- | --- | --- | --- | --- | --- |
| GUAGCAUACCGAGGAUAUUCAUAUAAUAAAUAAACAUGAGGAUCACCCAUGUGGCGAAAGCCUUGGGAGAAGGCGGAAUGCUAC [Xeonanis - 20 Mod55] (Eterna round: R96, puzzle: Same State NG 2) | 0.0207 | 0.296 | 0.486 |  |  |  |
| GUAGCAUACCGAGGAUAUUCAUAUUACAUGAGGAUCACCCAUGUUAUAGGUCGAUUACGACCUUGGGAGAAGGCGGAAUGCUAC [Xeonanis - 20 Mod32] (Eterna round: R96, puzzle: Same State NG 2) |  | 0.023 |  |  |  |  |
| GUAGCAUACCGAGGAUAUUCAUUAAACAUGAGGAUCACCCAUGUAAAUUAUAGGCGAAAGCCUUGGGAGAAGGCGGAAUGCUAC [Xeonanis - 20 Mod72] (Eterna round: R96, puzzle: Same State NG 2) | 0.011 | 0.0113 | 0.0191 |  |  |  |
| GUAGGACAUGAGGAUCACCCAUGUGGGAGGGAACGAGGAUAUGUGAAAGGAUUGAAGAGGACAGAAGGCGUGGAGG [JR_SS1_Sub026] (puzzle: Same State 1) |  |  |  | 0.0301 |  |  |
| GUAUAACAUGAGGAUCACCCAUGUCAACAAAGUCGAGGAUAUGGGCAGAGAGGAGAAGAACCAGAAGGCGAAUAUG [Mat - Same State 1 - Mod of UCT - D37] (puzzle: Same State 1) |  |  |  | 0.0592 | 0.0778 | 0.122 |
| GUCCGGCUGCCACAGGAUAUACGUGGAUCGACAUGAGGAUCACCCAUGUAUAUCCUAAUAAUUGCGUAGAAGGGUGGUCAGCCGG [Dionbe] (Eterna round: R96, puzzle: Same State 2) |  | 0.507 |  |  |  |  |
| GUCCGGCUGCCACAGGAUAUACGUGGAUCGACAUGAGGAUCACCCAUGUAUAUCCUAAUAAUUGCGUAGAAGGGUGGUCAGCCGG [Dionbe] (puzzle: Same State 2) |  |  |  | 0.54 | 0.0783 | 1.18 |
| GUGCGGCUGCCACAGGAUAUACGUGGAUCGACAUGAGGAUCACCCAUGUAUAUCCUAAUAAUUGCGUAGAAGGGUGGUCAGCCAG [Iserinqu] (puzzle: Same State 2) |  |  |  | 0.332 | 0.09 | 0.469 |
| GUGCUCAUGUAAGGAUAUGCAGCCGUUUCGGCUGCAGAAGGUACUAUAAUACAUGAGGAUCACCCAUGUCUCUAUAAUUUGGUG [salish99_SSNG1_r04_903] (Eterna round: R96, puzzle: Same State NG 1) |  | 0.0765 |  |  |  |  |
| GUGCUCGUGUAAGGAUAUGCAGCCGUUUCGGCUGCAGAAGGUACUAUAAUACAUGAGGAUCACCCAUGUCUCUAUAGUUUGGUG [salish99_SSNG1_r04_905] (Eterna round: R96, puzzle: Same State NG 1) |  | 0.0223 |  |  |  |  |
| GUGGAGGGUUGAGGAUAUUGAAUACAUAUGUUUAACAUGAGGAUCACCCAUGUGGGUUGCGGUAUCGAGAAGGUAAAUUGCUGG [salish99_SSNG2_r04_037] (Eterna round: R96, puzzle: Same State NG 2) |  | 0.0721 |  |  |  |  |
| GUGGCCCAGGCACAGGAUAUGUUUCUCGUAACAUGAGGAUCACCCAUGUGCCUAUGAGAUUUUAUGCAGAAGGGUGCACGCCACG [JL Atiinbe mod 01] (puzzle: Same State 2) |  |  |  | 0.056 | 0.0185 | 0.123 |
| GUGGUCAAUCAAGGAUAUGGAGCCUUAUUGGCUCCAGAAGGUGGGACAUGAGGAUCACCCAUGUGGCAGUGGUCAAAUGACCAC [Fiskers NG1ss - 34] (Eterna round: R96, puzzle: Same State NG 1) | 0.149 | 0.172 | 0.164 |  |  |  |
| GUGGUCAGACAUGAGGAUCACCCAUGUGGAAUAAAUAACAGACAGGAUAUGUAAUAUAAAAUAUAACAGAAGGGUCGAUUGGUG (Eterna round: R96, puzzle: Same State NG 3) | 0.0796 | 0.0647 | 0.0939 |  |  |  |
| GUGGUCAGACAUGAGGAUCACCCAUGUGGAAUAAAUAACGGACAGGAUAUAUAAUAUAGGAUAUAGUAGAAGGGUUGAUUGGUG (Eterna round: R96, puzzle: Same State NG 3) | 0.0858 | 0.0577 | 0.0602 |  |  |  |
| GUGGUCAGACAUGAGGAUCACCCAUGUGGAAUAAAUAAGGAAUAGGAUAUCGAAUAUAGGAUAUACGAGAAGGGUUGGUUGGUG (Eterna round: R96, puzzle: Same State NG 3) |  | 0.08 |  |  |  |  |
| GUGGUCAGACAUGAGGAUCACCCAUGUGGAAUAAAUAAGGGAUAGGAUAUGGAAUAUAGGAUAUACCAGAAGGGUUGGUUGGUG (Eterna round: R96, puzzle: Same State NG 3) | 0.107 | 0.0876 | 0.0951 |  |  |  |
| GUGGUGUAGAUACAGGAUAUGUUGCUCGUAACAUGAGGAUCACCCAUGUAUCUAUGAGAAUAAAUGCAGAAGGGUGCACACCACU [Mat - Same State 2 - Mod of UCT - D74] (Eterna round: R96, puzzle: Same State 2) | 0.0261 | 0.197 | 0.489 |  |  |  |
| GUGGUGUAGAUACAGGAUAUGUUGCUCGUAACAUGAGGAUCACCCAUGUAUCUAUGAGAAUAAAUGCAGAAGGGUGCACACCACU [Mat - Same State 2 - Mod of UCT - D74] (puzzle: Same State 2) |  |  |  | 0.467 | 0.0247 | 0.639 |
| GUGUUACAUGAGGAUCACCCAUGUUGUUGUAGAUAAGGAUAUAUGGUAACGAGAGAAAUAAUAGAAGGUAUUAGGC [JR_SS1_Sub061] (puzzle: Same State 1) |  |  |  | 0.0347 |  |  |
| GUUAAACAUGAGGAUCACCCAUGUCAAUGUAGUCGAGGAUAUGGGUAGCCAUGAGGCGUACUAGAAGGCGAGGAGU [Mat - Same State 1 - Mod of JL - D19] (puzzle: Same State 1) |  |  |  | 0.0698 | 0.118 | 0.0805 |
| GUUACAUGAGGAUCACCCAUGUAUGUGUGGGAGUAAGUGUCUUAGGAUAUCUAGUAGUUAAUUUAAGAGAAGGAAGAUUGUUGU [JMF's solution 55] (Eterna round: R96, puzzle: Same State NG 3) | 0.145 | 0.0819 | 0.104 |  |  |  |
| GUUACAUGAGGAUCACCCAUGUAUGUGUGGGAGUAAGUGUCUUAGGAUAUCUAGUAUUUAACUUAAGAGAAGGAAGAUUGUUGU [JMF's solution 63] (Eterna round: R96, puzzle: Same State NG 3) | 0.142 | 0.0958 | 0.105 |  |  |  |
